Assay results as given in ChEMBL document CHEMBL1137638, “TEM-158 (CMT-9), a new member of the CMT-type extended-spectrum beta-lactamases” (Antimicrob Agents Chemother, 2007).

Legend:
[1] = substrate: CC(C)(O/N=C(\C(=O)N[C@@H]1C(=O)N2C(C(=O)[O-])=C(C[n+]3ccccc3)CS[C@H]12)c1csc(N)n1)C(=O)O; conditions: Escherichia coli; DH5alpha CL1179
[2] = substrate: CC(=O)OCC1=C(C(=O)O)N2C(=O)[C@@H](NC(=O)Cc3cccs3)[C@H]2SC1; experiment: (§1) Activity of Escherichia coli DH5alpha beta-lactamase TEM-1 by microacidimetric method
[3] = substrate: CC(C)(O/N=C(\C(=O)N[C@@H]1C(=O)N2C(C(=O)[O-])=C(C[n+]3ccccc3)CS[C@H]12)c1csc(N)n1)C(=O)O; experiment: as §1
[4] = substrate: CC1(C)S[C@@H]2[C@H](NC(=O)Cc3ccccc3)C(=O)N2[C@H]1C(=O)O; experiment: as §1
[5] = substrate: CC1(C)S[C@@H]2[C@H](NC(=O)[C@H](C(=O)O)c3ccsc3)C(=O)N2[C@H]1C(=O)O; experiment: as §1
[6] = substrate: CC1(C)S[C@@H]2[C@H](NC(=O)[C@H](N)c3ccc(O)cc3)C(=O)N2[C@H]1C(=O)O; experiment: as §1
[7] = substrate: CCN1CCN(C(=O)N[C@@H](C(=O)N[C@@H]2C(=O)N3[C@@H]2SC(C)(C)[C@@H]3C(=O)O)c2ccccc2)C(=O)C1=O; experiment: as §1
[8] = substrate: CO/N=C(\C(=O)N[C@@H]1C(=O)N2C(C(=O)O)=C(COC(C)=O)CS[C@H]12)c1csc(N)n1; experiment: as §1
[9] = substrate: CC(=O)OCC1=C(C(=O)O)N2C(=O)[C@@H](NC(=O)Cc3cccs3)[C@H]2SC1; experiment: (§2) Activity of Escherichia coli DH5alpha beta-lactamase TEM-158 by microacidimetric method
[10] = substrate: CC(C)(O/N=C(\C(=O)N[C@@H]1C(=O)N2C(C(=O)[O-])=C(C[n+]3ccccc3)CS[C@H]12)c1csc(N)n1)C(=O)O; experiment: as §2
[11] = substrate: CC1(C)S[C@@H]2[C@H](NC(=O)Cc3ccccc3)C(=O)N2[C@H]1C(=O)O; experiment: as §2
[12] = substrate: CC1(C)S[C@@H]2[C@H](NC(=O)[C@H](C(=O)O)c3ccsc3)C(=O)N2[C@H]1C(=O)O; experiment: as §2
[13] = substrate: CC1(C)S[C@@H]2[C@H](NC(=O)[C@H](N)c3ccc(O)cc3)C(=O)N2[C@H]1C(=O)O; experiment: as §2
[14] = substrate: CCN1CCN(C(=O)N[C@@H](C(=O)N[C@@H]2C(=O)N3[C@@H]2SC(C)(C)[C@@H]3C(=O)O)c2ccccc2)C(=O)C1=O; experiment: as §2
[15] = substrate: CC(C)(O/N=C(\C(=O)N[C@@H]1C(=O)N2C(C(=O)[O-])=C(C[n+]3ccccc3)CS[C@H]12)c1csc(N)n1)C(=O)O; conditions: Escherichia coli; TO799

B1: Beta lactamase TEM-152 (Escherichia coli), Q09Q13 (protein)
chain: MSIQHFRVALIPFFAAFCLPVFAHPETLVKVKDAEDQLGARVGYIELDLNSGKILESFRPEERFPMVSTFKVLLCGAVLSRVDAGQEQLGRRIHYSQNDLVEYSPVTEKHLTDGMTVRELCSAAITMSDNTAANLLLTTIGGPKELTAFLHNMGDHVTRLDHWEPELNEAIPNDERDTTMPAAMATTLRKLLTGELLTLASRQQLIDWMEADKVAGPLLRSALPAGWFIADKSGAGKRGSRGIIAALGPDGKPSRIVVIYTTGSQATMDERDRQIAEIGASLIKHW
[1]
  kcat: 40 s⁻¹

B2: Beta-lactamase TEM (Escherichia coli), P62593 (protein)
chain: MSIQHFRVALIPFFAAFCLPVFAHPETLVKVKDAEDQLGARVGYIELDLNSGKILESFRPEERFPMMSTFKVLLCGAVLSRVDAGQEQLGRRIHYSQNDLVEYSPVTEKHLTDGMTVRELCSAAITMSDNTAANLLLTTIGGPKELTAFLHNMGDHVTRLDRWEPELNEAIPNDERDTTMPAAMATTLRKLLTGELLTLASRQQLIDWMEADKVAGPLLRSALPAGWFIADKSGAGERGSRGIIAALGPDGKPSRIVVIYTTGSQATMDERNRQIAEIGASLIKHW
[2]
  kcat: 165 s⁻¹
[3]
  kcat: < 0.1 s⁻¹
[4]
  Km: 34 µM
  kcat: 1500 s⁻¹
[5]
  Km: 36 µM
  kcat: 135 s⁻¹
[6]
  Km: 15 µM
  kcat: 1120 s⁻¹
[7]
  Km: 55 µM
  kcat: 1250 s⁻¹
[8]
  kcat: < 0.1 s⁻¹

B3: CMT-type beta lactamase (Escherichia coli), A5HJU3 (protein)
chain: MSIQHFRVALIPFFAAFCLPVFAHPETLVKVKDAEDQLGARVGYIELDLNSGKILESFRPEERFPMLSTFKVLLCGAVLSRVDAGQEQLGRRIHYSQNDLVEYSPVTEKHLTDGMTVRELCSAAITMSDNTAANLLLTTIGGPKELTAFLHNMGDHVTRLDSWEPELNEAIPNDERDTTMPAAMATTLRKLLTGELLTLASRQQLIDWMEADKVAGPLLRSALPAGWFIADKSGAGERGSRGIIAALGPDGKPSRIVVIYTTGSQATMDERDRQIAEIGASLIKHW
[9]
  Km: 170 µM
  kcat: 0.26 s⁻¹
[10]
  kcat: 1.7 s⁻¹
[11]
  Km: 38.1 µM
  kcat: 18.5 s⁻¹
[12]
  Km: 143 µM
  kcat: 4.2 s⁻¹
[13]
  Km: 24.8 µM
  kcat: 14.4 s⁻¹
[14]
  Km: 46 µM
  kcat: 17.1 s⁻¹

B4: Beta-lactamase TEM-125 (Escherichia coli), Q6GWS8 (protein)
chain: MSIQHFRVALIPFLAAFCLPVFAHPETLVKVKDAEDQLGARVGYIELDLNSGKILESFRPEERFPMLSTFKVLLCGAVLSRVDAGQEQLGRRIHYSQNDLVEYSPVTEKHLTDGMTVRELCSAAITMSDNTAANLLLTTIGGPKELTAFLHNMGDHVTRLDSREPELNEAIPNDERDTTMPAAMATTLRKLLTGELLTLASRQQLIDWMEADKVAGPLLRSALPAGWFIADKSGAGERGSRGIIAALGPDGKPSRIVVIYTTGSQATMDERDRQIAEIGASLIKHW
[15]
  kcat: 3.7 s⁻¹
